Paper PMC7792996, “Crystal structure of death-associated protein kinase 1 in complex with the dietary compound resveratrol” (IUCrJ, 2021)

Substrate: Nc1ncnc2c1ncn2[C@@H]1O[C@H](COP(=O)(O)OP(=O)(O)OP(=O)(O)O)[C@@H](O)[C@H]1O
Experiment: intrinsic ATPase kinetics by malachite green assay (Km)
Format: biochemical, Homo sapiens
Settings: Mg2+ ([…] MgCl2 in the assay) ATP-binding site

B1: Death-associated protein kinase 1 (DAPK1) (Homo sapiens) (protein)
chain: MTVFRQENVDDYYDTGEELGSGQFAVVKKCREKSTGLQYAAKFIKKRRTKSSRRGVSREDIEREVSILKEIQHPNVITLHEVYENKTDVILILELVAGGELFDFLAEKESLTEEEATEFLKQILNGVYYLHSLQIAHFDLKPENIMLLDRNVPKPRIKIIDFGLAHKIDFGNEFKNIFGTPEFVAPEIVNYEPLGLEADMWSIGVITYILLSGASPFLGDTKQETLANVSAVNYEFEDEYFSNTSALAKDFIRRLLVKDPKKRMTIQDSLQHPWIKPKDTQQALS
notes: catalytic domain, residues 1–285
**Q.** For B1, which Km is on record?
**A.** 21 ± 2.4 µM

**Q.** And the kcat?
**A.** 0.012 ± 8.5e-05 s⁻¹

**Q.** What about the kcat/Km of the same protein?
**A.** 733 ± 71.7 M⁻¹ s⁻¹
